Results taken from patent US20220249621A1.

Molecular target: EphB4 on CD4+ T cells isolated from the spleens of tumor-bearing mice (mouse) (UniProt P54761)
Experiment: cell-based or functional assay

Chain of UniProt P54761 (P54761 16-987): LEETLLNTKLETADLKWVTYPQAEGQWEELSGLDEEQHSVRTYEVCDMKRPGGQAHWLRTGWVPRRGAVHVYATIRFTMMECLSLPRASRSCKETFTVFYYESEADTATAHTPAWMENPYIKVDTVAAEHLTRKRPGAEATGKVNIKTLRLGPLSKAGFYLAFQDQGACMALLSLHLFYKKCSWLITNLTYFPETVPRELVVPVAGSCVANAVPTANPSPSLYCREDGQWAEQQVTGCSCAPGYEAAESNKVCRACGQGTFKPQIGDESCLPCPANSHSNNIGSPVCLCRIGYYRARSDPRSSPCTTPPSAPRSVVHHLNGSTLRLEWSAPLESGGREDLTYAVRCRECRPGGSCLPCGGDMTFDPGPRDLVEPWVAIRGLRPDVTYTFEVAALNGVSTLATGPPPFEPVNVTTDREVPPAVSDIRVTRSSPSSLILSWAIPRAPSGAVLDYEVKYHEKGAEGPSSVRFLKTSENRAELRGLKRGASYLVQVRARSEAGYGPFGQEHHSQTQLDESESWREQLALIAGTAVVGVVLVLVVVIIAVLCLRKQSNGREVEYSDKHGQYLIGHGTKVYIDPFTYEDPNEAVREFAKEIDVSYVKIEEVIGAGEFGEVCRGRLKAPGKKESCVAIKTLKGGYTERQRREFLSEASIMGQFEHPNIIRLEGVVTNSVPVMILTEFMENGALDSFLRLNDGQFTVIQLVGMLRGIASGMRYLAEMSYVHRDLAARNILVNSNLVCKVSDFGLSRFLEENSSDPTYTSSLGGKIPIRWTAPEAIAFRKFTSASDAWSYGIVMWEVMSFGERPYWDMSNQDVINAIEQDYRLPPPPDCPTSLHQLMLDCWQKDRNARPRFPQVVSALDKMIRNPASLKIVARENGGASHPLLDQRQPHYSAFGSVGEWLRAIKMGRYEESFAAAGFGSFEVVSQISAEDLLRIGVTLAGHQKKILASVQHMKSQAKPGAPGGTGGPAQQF

**Q.** For recombinant ephrin-B2-Fc (Fc fusion), which fold decrease in Ki67 expressing Tregs (flow cytometry) is on record?
**A.** 1.7 fold
